B1: Mtb RNAP β subunit (natural protein)
chain: MLEGCILADSRQSKTAASPSPSRPQSSSNNSVPGAPNRVSFAKLREPLEVPGLLDVQTDSFEWLIGSPRWRESAAERGDVNPVGGLEEVLYELSPIEDFSGSMSLSFSDPRFDDVKAPVDECKDKDMTYAAPLFVTAEFINNNTGEIKSQTVFMGDFPMMTEKGTFIINGTERVVVSQLVRSPGVYFDETIDKSTDKTLHSVKVIPSRGAWLEFDVDKRDTVGVRIDRKRRQPVTVLLKALGWTSEQIVERFGFSEIMRSTLEKDNTVGTDEALLDIYRKLRPGEPPTKESAQTLLENLFFKEKRYDLARVGRYKVNKKLGLHVGEPITSSTLTEEDVVATIEYLVRLHEGQTTMTVPGGVEVPVETDDIDHFGNRRLRTVGELIQNQIRVGMSRMERVVRERMTTQDVEAITPQTLINIRPVVAAIKEFFGTSQLSQFMDQNNPLSGLTHKRRLSALGPGGLSRERAGLEVRDVHPSHYGRMCPIETPEGPNIGLIGSLSVYARVNPFGFIETPYRKVVDGVVSDEIVYLTADEEDRHVVAQANSPIDADGRFVEPRVLVRRKAGEVEYVPSSEVDYMDVSPRQMVSVATAMIPFLEHDDANRALMGANMQRQAVPLVRSEAPLVGTGMELRAAIDAGDVVVAEESGVIEEVSADYITVMHDNGTRRTYRMRKFARSNHGTCANQCPIVDAGDRVEAGQVIADGPCTDDGEMALGKNLLVAIMPWEGHNYEDAIILSNRLVEEDVLTSIHIEEHEIDARDTKLGAEEITRDIPNISDEVLADLDERGIVRIGAEVRDGDILVGKVTPKGETELTPEERLLRAIFGEKAREVRDTSLKVPHGESGKVIGIRVFSREDEDELPAGVNELVRVYVAQKRKISDGDKLAGRHGNKGVIGKILPVEDMPFLADGTPVDIILNTHGVPRRMNIGQILETHLGWCAHSGWKVDAAKGVPDWAARLPDELLEAQPNAIVSTPVFDGAQEAELQGLLSCTLPNRDGDVLVDADGKAMLFDGRSGEPFPYPVTVGYMYIMKLHHLVDDKIHARSTGPYSMITQQPLGGKAQFGGQRFGEMECWAMQAYGAAYTLQELLTIKSDDTVGRVKVYEAIVKGENIPEPGIPESFKVLLKELQSLCLNVEVLSSDGAAIELREGEDEDLERAAANLGINLSRNESASVEDLA
B2: Mtb RNAP σ^A (natural protein)
chain: MAATKASTATDEPVKRTATKSPAASASGAKTGAKRTAAKSASGSPPAKRATKPAARSVKPASAPQDTTTSTIPKRKTRAAAKSAAAKAPSARGHATKPRAPKDAQHEAATDPEDALDSVEELDAEPDLDVEPGEDLDLDAADLNLDDLEDDVAPDADDDLDSGDDEDHEDLEAEAAVAPGQTADDDEEIAEPTEKDKASGDFVWDEDESEALRQARKDAELTASADSVRAYLKQIGKVALLNAEEEVELAKRIEAGLYATQLMTELSERGEKLPAAQRRDMMWICRDGDRAKNHLLEANLRLVVSLAKRYTGRGMAFLDLIQEGNLGLIRAVEKFDYTKGYKFSTYATWWIRQAITRAMADQARTIRIPVHMVEVINKLGRIQRELLQDLGREPTPEELAKEMDITPEKVLEIQQYAREPISLDQTIGDEGDSQLGDFIEDSEAVVAVDAVSFTLLQDQLQSVLDTLSEREAGVVRLRFGLTDGQPRTLDEIGQVYGVTRERIRQIESKTMSKLRHPSRSQVLRDYLD
B4: Mtb RNAP α subunit (natural protein)
chain: MLISQRPTLSEDVLTDNRSQFVIEPLEPGFGYTLGNSLRRTLLSSIPGAAVTSIRIDGVLHEFTTVPGVKEDVTEIILNLKSLVVSSEEDEPVTMYLRKQGPGEVTAGDIVPPAGVTVHNPGMHIATLNDKGKLEVELVVERGRGYVPAVQNRASGAEIGRIPVDSIYSPVLKVTYKVDATRVEQRTDFDKLILDVETKNSISPRDALASAGKTLVELFGLARELNVEAEGIEIGPSPAEADHIASFALPIDDLDLTVRSYNCLKREGVHTVGELVARTESDLLDIRNFGQKSIDEVKIKLHQLGLSLKDSPPSFDPSEVAGYDVATGTWSTEGAYDEQDYAETEQL

The target of experiment [1] is T1, Mtb PhoP, phosphorylated with acetyl phosphate (AcP) (Mycobacterium tuberculosis, UniProt P71814 1-247). The experiment in a line: […].
The experiment “Mtb RNAP α subunit” has as its target B4. In words: cryo-EM structure.
For the experiment “Mtb RNAP σ^A”, the target named is B2. The experiment in a line: cryo-EM structure.
The target in experiment [2] is T1, Mtb PhoP, phosphorylated with acetyl …. In words: cryo-EM structure.
In the experiment “Mtb RNAP β subunit” the target is B1. In words: cryo-EM structure.

Regarding B1, the binding result in experiment [1] was “binds”. On to B2, for which the binding result in experiment [1] is recorded as “binds”.

B3: Mtb GlnR, the nitrogen metabolism regulator (natural protein)
chain: MLELLLLTSELYPDPVLPALSLLPHTVRTAPAEASSLLEAGNADAVLVDARNDLSSGRGLCRLLSSTGRSIPVLAVVSEGGLVAVSADWGLDEILLLSTGPAEIDARLRLVVGRRGDLADQESLGKVSLGELVIDEGTYTARLRGRPLDLTYKEFELLKYLAQHAGRVFTRAQLLHEVWGYDFFGGTRTVDVHVRRLRAKLGPEHEALIGTVRNVGYKAVRPARGRPPAADPDDEDADPGRDGMQEPLVDPLRSQ
Turning to B3, the binding result (with Mtb RNAP α subunit; with Mtb RNAP σ^A; in experiment [2]; in the experiment with Mtb RNAP β subunit) was “binds” each time. As for B4, the binding result in experiment [1] is listed as “binds”.

Values taken from article doi:10.1101/2024.05.16.594476 (bioRxiv, 2024).
